For orientation: Kd means the equilibrium constant for the complex coming apart.

Assay [1] concerns retinal pigment epithelial cells (ARPE-19 cells). Kind of assay: Tight junction breakdown suppression test, impedance by xCELLigence (Example 34). It is filed as cell-based. As for the experimental part: FBS (FUJIFILM Wako Pure Chemical Corp.) was added at 10% to D-MEM (FUJIFILM Wako Pure Chemical Corp.), and penicillin-streptomycin (Nacalai Tesque, Inc.) was added at 1% thereto to prepare DMEM medium. ARPE-19 cells (ATCC) were cultured in the DMEM medium using a 10 cm dish (Corning Inc.).
xCELLigence RTCA DP system (ACEA Biosciences, Inc.) was installed in a CO2 incubator and used in a state loaded overnight or longer after the installation for stabilization. Immediately before cell preparation, DMEM medium was added at 50 μL/well to E-plate (ACEA Biosciences, Inc.), and a background was measured.
The medium was removed from the ARPE-19 cells cultured in (1) described above, which were then washed by repeating the addition and removal of 10 mL of PBS(−) (FUJIFILM Wako Pure Chemical Corp.) twice. 1 mL of trypsin-EDTA (FUJIFILM Wako Pure Chemical Corp.) was added thereto, and the cells were dispersed by incubation in a CO2 incubator (Taitec Corp.) at 37° C. for 3 minutes. Then, the activity of trypsin was neutralized by the addition of 10 mL of DMEM medium. The neutralized cell dispersion was transferred to a 50 mL tube (Falcon) and centrifuged at 1500 rpm for 5 minutes using a centrifuge (Kubota Corp.). Then, the supernatant was discarded, and the precipitates were resuspended in 1 mL of DMEM medium. A 10 μL aliquot of the resuspended cell dispersion was mixed with 10 μL of Trypan Blue (NanoEnTek Inc.), and 10 μL thereof was added to a counting chamber (NanoEnTek Inc.). Then, the number of live cells was counted in Auto Cell Counter EVE (NanoEnTek Inc.). The cell suspension was diluted into 4.0×10^5 cells/mL with DMEM medium and inoculated at 80 μL/well to E-plate (ACEA Biosciences, Inc.).
The impedance of the plate was measured every 15 minutes using the xCELLigence RTCA DP system to confirm the adhesion of the cells to the plate. […] After the addition, the impedance was also measured every 15 minutes.
The impedance was measured 10 to 12 hours after the addition of A-peak-BSA and normalized to that of the A-peak-BSA addition group defined as 0.

The next assay deals with A-peak-BSA (Bos taurus, UniProt P02769). Kind of assay: Dissociation constant measurement of PB-1, Biacore T200 (Example 26). As to conditions: Biacore T200, CM5; ligand A-peak-BSA; PB-1 0.1953 to 50 nM; 1:1 binding model. As for the experimental part:
The dissociation constant (Kd value) of the monoclonal antibody PB-1 was measured by the following approach: A-peak-BSA was diluted with a 10 mM sodium acetate solution (pH 5.0) to prepare a ligand solution with a final concentration of 50 μg/mL. Biacore T200 (GE Healthcare Japan Corp.) was used for the immobilization of the ligand and the calculation of the KD value. The ligand solution was immobilized (final amount immobilized: 72 RU) onto sensor chip CM5 (GE Healthcare Japan Corp.) using an amine coupling kit (GE Healthcare Japan Corp.). Subsequently, PB-1 antibody dilution solutions from 0.1953 to 50 nM were prepared with a running buffer solution HBS-P+ (GE Healthcare Japan Corp.), and a sensorgram was obtained.
1:1 binding was adopted to a fitting model, and the sensorgram was analyzed.
For orientation: SPR reads the build-up and loss of mass on a sensor chip optically.

Assay [2] deals with T1, GAL13-BSA (Bos taurus, UniProt P02769).
T1 construct: purchased Sigma-Aldrich Co. LLC
T1 sequence (P02769 25-607): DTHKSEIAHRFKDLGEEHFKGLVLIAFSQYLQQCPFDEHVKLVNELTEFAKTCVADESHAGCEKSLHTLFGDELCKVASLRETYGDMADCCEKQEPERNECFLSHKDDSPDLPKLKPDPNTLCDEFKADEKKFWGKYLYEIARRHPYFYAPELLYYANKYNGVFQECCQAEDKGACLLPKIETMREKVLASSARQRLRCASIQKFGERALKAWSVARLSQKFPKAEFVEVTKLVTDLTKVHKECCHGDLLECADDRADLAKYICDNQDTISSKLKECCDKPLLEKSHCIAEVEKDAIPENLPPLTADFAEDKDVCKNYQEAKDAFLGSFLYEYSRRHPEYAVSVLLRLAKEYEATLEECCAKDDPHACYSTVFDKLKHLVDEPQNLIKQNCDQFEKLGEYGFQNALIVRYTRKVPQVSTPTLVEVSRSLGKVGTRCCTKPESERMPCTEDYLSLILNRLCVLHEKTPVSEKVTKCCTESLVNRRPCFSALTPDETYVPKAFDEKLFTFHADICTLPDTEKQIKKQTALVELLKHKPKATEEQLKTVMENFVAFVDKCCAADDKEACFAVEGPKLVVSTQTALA
Kind of assay: Reactivity of novel monoclonal antibody by competitive ELISA (Example 6). It is filed as binding. As to the method: GAL13-BSA was added at 100 μL/well with a concentration of 1 μg/mL and immobilized overnight at 4° C. The plate was washed three times with PBS containing 0.05% (v/v) Tween 20 (PBS-T) and then blocked with a carbonate buffer solution (pH 9.5) containing 0.5% (w/v) gelatin for 1 hour. After preparation of a POD-labeled SJ-5 antibody (0.4 μg/mL) and an anti-glyceraldehyde-derived AGEs polyclonal antibody (6 μg/mL) as a control, 10-fold serial dilution solutions (50 μL each) of GAL13-BSA or control BSA and the POD-labeled SJ-5 antibody or the anti-glyceraldehyde-derived AGEs polyclonal antibody as a control (50 μL) were added to the antigen-immobilized plate, stirred with a plate mixer, and then left standing at room temperature for 1 hour. After washing, an o-phenylenediamine solution (100 μL) prepared into 0.5 mg/mL with a 0.1 M citrate-phosphate buffer solution (pH 5.0) containing 0.02% (w/v) hydrogen peroxide was added to each well and left standing at 25° C. for 10 minutes. Then, color reaction was terminated by the addition of a 1 M sulfuric acid solution (50 μL) to each well. Then, absorbance at 490 nm was measured with a microplate reader.
Background: An ELISA detects its analyte on a solid surface through an enzyme-linked reagent.

Assay [3] addresses T1, GAL13-BSA. The experiment in a line: Reactivity of novel monoclonal antibody by direct ELISA (Example 5). It is filed as binding. As to conditions: immobilized GAL13-BSA 1 μg/mL, POD-labeled antibody dilution series from 4 μg/mL. As for the experimental part: BSA modified with the novel structure derived from Glycer-AGEs (GAL13-BSA) was added at 100 μL/well with a concentration of 1 μg/mL and immobilized overnight at 4° C. The plate was washed three times with PBS containing 0.05% (v/v) Tween 20 (PBS-T) and then blocked with PBS-T containing 0.5% (w/v) gelatin for 1 hour. The POD-labeled novel monoclonal antibody SJ-5 prepared in Example 4 and the anti-glyceraldehyde-derived AGEs polyclonal antibody as a control were serially diluted into 4-fold dilutions from 4 μg/mL to 0.06254 μg/mL to prepare dilution series, which were then added at 100 μL/well to the antigen-immobilized plate and left standing for 1 hour. After washing, an o-phenylenediamine solution (100 μL) prepared into 0.5 mg/mL with a 0.1 M citrate-phosphate buffer solution (pH 5.0) containing 0.02% (w/v) hydrogen peroxide was added to each well and left standing at 25° C. for 10 minutes. Then, color reaction was terminated by the addition of a 1 M sulfuric acid solution (50 μL) to each well. Then, absorbance at 490 nm was measured with a microplate reader.

A-peak-BSA, sequence (P02769 25-607): as above

B1: PB-1: mouse monoclonal antibody raised against A-peak-BSA; heavy-chain variable region SEQ ID NO 18, light-chain variable region SEQ ID NO 22 (antibody, listed as Mus musculus, V domains shown)
VH: EVRLQQSGPELVKPGTSVKISCKASGYSFTGYYMHWVKQSPVKSLEWIGRIIPYNGATSYNQNFKDKASLTVDKSSRTAYMDLHSLTSEDSAVYYCARSRYYGRAPYYFDYWGQGTTLTVSS
VL: DVVVTQTPLSLPVSLGDQASISCRSSQSIVHSNGNTYLEWYLQKPGQSPKLLIYKVSNRFSGVPDRISGSGSGTDFTLKISRVEAGDLGVYSCFQGSHVPFTFGSGTKLEIK
As for B1, the “suppression of A-peak-BSA-induced reduction in impedance” value in assay [1] (9 μL of PB-1 at 10, 3, 1 or 0.3 mg/mL) is given as “significantly suppressed”. For the same molecule, the “suppression of reduction in impedance compared with SJ-5 antibody” value in assay [1] (PB-1 even in a lower concentration region) is “stronger suppression than that by the SJ-5 antibody”. The molecule also came in with a Kd with A-peak-BSA of 4.15 nM.

B2: SJ-5: mouse monoclonal antibody raised against GAL13-MSA; heavy-chain variable region SEQ ID NO 4, light-chain variable region SEQ ID NO 8 (antibody, listed as Mus musculus, V domains shown)
VH: EVMLVESGGRLVKPGGSLKLSCAASGFTFSSYGMSWVRQTPEKRLEWVATISGGGSYTYYPDSVKGRFTISRDNVKNNLYLQMSSLRSEDTALYYCARRGAYGDYGWFAYWGQGTLVTVSA
VL: DIVLTQSPATLSVTPGDSVSLSCRASQSINNNLHWYQQKSHESPRLLIKCASQSISGIPSRFSGSGSGTDFTLSINSVETEDFGMYFCQQSNSWPLTFGAGTKLELK
Take B2: the “antibody concentration giving similar results, lower than that of the polyclonal antibody” value in the assay with GAL13-BSA [2] (competitive ELISA, versus anti-glyceraldehyde-derived AGEs polyclonal antibody) is recorded as 15 times. The “reactivity with GAL13-BSA in the competitive method” value in the assay with GAL13-BSA [2] (immobilized GAL13-BSA, POD-labeled SJ-5 0.4 μg/mL, polyclonal antibody 6 μg/mL) was “react favorably”. In addition, in the assay with GAL13-BSA [3], the “reactivity with GAL13-BSA (absorbance at 490 nm)” value is “react favorably”. Also, the “suppression of A-peak-BSA-induced reduction in impedance” value in assay [1] (SJ-5 final concentration of 1 mg/mL) is given as “suppression of the reduction was found”.

The values above are taken from patent publication US12391751B2, “Antibody against advanced glycation end products and use thereof” (Bloom Technology Corporation, priority 2018, dated 2025).
